Numbering of substitutions follows the chain as printed. Names may count otherwise.
B1: CK 20K Direct (other)
chain: MSLTHRRFGGSGGSPFSGLSSIAVRSGSYLDAIIIDGVHHGGSGGNLSPTFTFGSGEYISNMTIRSGDYIDNISFETNQGRRFGPYGGSGGSANTLSNVRVIQINGSAGDYLDSLDIYYEQYK
modifications: 20,000 MW PEG coupled by NHS ester to a primary amine. The intended site is the added C-terminal Lys, pos 123, written K. At least one PEG per dimer. The exact site and number of PEGs are not determined.
B2: Q 20K Direct (other)
chain: MSLTHRKFGGSGGSPFSGLSSIAVRSGSYLDAIIIDGVHHGGSGGNLSPTFTFGSGEYISNMTIRSGDYIDNISFETNQGRRFGPYGGSGGSANTLSNVKVIQINGSAGDYLDSLDIYYEQY
modifications: 20,000 MW PEG coupled by NHS ester to a primary amine. The candidate sites are Lys pos 7 and Lys pos 100, both written K. At least one PEG per dimer. The exact site and number of PEGs are not determined.
B3: M78K2K Rx Direct (other)
chain: B2 chain with K7R, Q79K, K100R
modifications: chain 1 pos 79: Lys carrying 2,000 MW PEG by NHS-ester amine coupling, written K. It is the only lysine in the chain. At least one PEG per dimer. The exact site and occupancy were not measured.
B4: M78K20K Rx (other)
chain: B2 chain with K7R, Q79K, K100R
modifications: chain 1 pos 79: Lys carrying 20,000 MW PEG by NHS-ester amine coupling, written K. It is the only lysine in the chain. At least one PEG per dimer. The exact site and occupancy were not measured.
B5: NK 20K Direct (other)
chain: MKSLTHRRFGGSGGSPFSGLSSIAVRSGSYLDAIIIDGVHHGGSGGNLSPTFTFGSGEYISNMTIRSGDYIDNISFETNQGRRFGPYGGSGGSANTLSNVRVIQINGSAGDYLDSLDIYYEQY
modifications: 20,000 MW PEG coupled by NHS ester to a primary amine. The intended site is the added N-terminal Lys, pos 2, written K; the N-terminal amine is also possible. At least one PEG per dimer. The exact site and number of PEGs are not determined.
B6: NK 2K Direct (other)
chain: B5 chain
modifications: 2,000 MW PEG coupled by NHS ester to a primary amine. The intended site is the added N-terminal Lys, pos 2, written K; the N-terminal amine is also possible. At least one PEG per dimer. The exact site and number of PEGs are not determined.
B7: CK 20K (other)
chain: B1 chain
modifications: 20,000 MW PEG coupled by NHS ester to a primary amine. The intended site is the added C-terminal Lys, pos 123, written K. At least one PEG per dimer. The exact site and number of PEGs are not determined.
B8: Q 20K (other)
chain: B2 chain
modifications: 20,000 MW PEG coupled by NHS ester to a primary amine. The candidate sites are Lys pos 7 and Lys pos 100, both written K. At least one PEG per dimer. The exact site and number of PEGs are not determined.
B9: M78K 20K (other)
chain: B2 chain with K7R, Q79K, K100R
modifications: chain 1 pos 79: Lys carrying 20,000 MW PEG by NHS-ester amine coupling, written K. It is the only lysine in the chain. At least one PEG per dimer. The exact site and occupancy were not measured.
B10: M78K 2K (other)
chain: B2 chain with K7R, Q79K, K100R
modifications: chain 1 pos 79: Lys carrying 2,000 MW PEG by NHS-ester amine coupling, written K. It is the only lysine in the chain. At least one PEG per dimer. The exact site and occupancy were not measured.
B11: NK 2K (other)
chain: B5 chain
modifications: 2,000 MW PEG coupled by NHS ester to a primary amine. The intended site is the added N-terminal Lys, pos 2, written K; the N-terminal amine is also possible. At least one PEG per dimer. The exact site and number of PEGs are not determined.
B12: NK 20K (other)
chain: B5 chain
modifications: 20,000 MW PEG coupled by NHS ester to a primary amine. The intended site is the added N-terminal Lys, pos 2, written K; the N-terminal amine is also possible. At least one PEG per dimer. The exact site and number of PEGs are not determined.
B13: CK (other)
chain: B1 chain
B14: Q (other)
chain: B2 chain
B15: M78K (other)
chain: B2 chain with K7R, Q79K, K100R
B16: NK (other)
chain: B5 chain

molecular target: Gp120 (HIV); experiment: direct ELISA; direct ELISA

B1 and B2 are within 1.5-fold of each other in EC50: 0.029 ng/mL for the first, 0.0355 ng/mL for the second.

Going from B3 to B4, the EC50 falls from 0.332 ng/mL to 0.0624 ng/mL (5.3-fold).

First: B5
Second: B6
The EC50 of the first is 5.1-fold lower: 0.0173 ng/mL for the first, 0.0875 ng/mL for the second.

molecular target: Gp120 (HIV); experiment: indirect ELISA; indirect ELISA

B7 and B8 are within 1.5-fold of each other in EC50: 14.1 ng/mL for the first, 16.3 ng/mL for the second.

Compared with B9, B10 is 1.8-fold lower in EC50: 19.2 ng/mL for the first, 10.9 ng/mL for the second.

Compared with B11, B12 is 3.5-fold higher in EC50: 7.45 ng/mL for the first, 26.4 ng/mL for the second.

molecular target: Gp120 (HIV); experiment: ELISA

First: B7
Second: B13
The EC50 of the first is 8.6-fold higher: 90.5 ng/mL for the first, 10.5 ng/mL for the second.

Going from B8 to B14, the EC50 falls from 33.6 ng/mL to 8.38 ng/mL (4-fold).

First: B9
Second: B15
The EC50 of the first is 27-fold higher: 304 ng/mL for the first, 11.1 ng/mL for the second.

Compared with B10, B16 is 2.3-fold lower in EC50: 33.8 ng/mL for the first, 15 ng/mL for the second.

With B11 the EC50 was 60.8 ng/mL.
